From the supplement of paper PMC10201428
± gives the standard deviation of the averaged measurements.

B1: library; a variant is named by its letters at N, in order (parent)
chain: AATGTTGTTGATGCAACCATAAAGTGATATTTAATAATTATTTATAATCAGCAACTTAACCACAAAACAACCATATATTGATATNTCACAAAACAACCATAANTTGATATTTTTGTGAATCGAGTATTTCAGCAAAACTACTGCAGTAAGAA

Legend:
[1] = variants of: B1; assay: relative integration efficiency (T-LR orientation) vs wild-type transposon end (log2 (normalized fold change)); transposon end mutated: left end; higher = more efficient transposition; details: with VchCAST RNA-guided transposition machinery (E. coli BL21(DE3) host, lacZ target)
Summary of the method: (§1)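 Barcode abundances in input plasmids and in genomic integration junctions were obtained by PCR amplification and Illumina sequencing. These came from E. coli BL21(DE3) co-transformed with a T7-driven effector plasmid and a pUC57 donor carrying 1549 left-end or 1849 right-end transposon variants, then plated with 0.1 mM IPTG at 37°C for 18 h. Relative integration efficiency is the output/input fold change, normalised to reference barcodes and log-transformed.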

[2] = variants of: B1; assay: relative integration efficiency (T-RL orientation) vs wild-type transposon end (log2 (normalized fold change)); transposon end mutated: left end; higher = more efficient transposition; details: with VchCAST RNA-guided transposition machinery (E. coli BL21(DE3) host, lacZ target)
Summary of the method: as §1

Row | Variant | relative integration efficiency (log2) [1] | relative integration efficiency (log2) [2]
1 | CG G4T T5G T6G G7T | < -10 | -6.583 ± 0.046
2 | CG T8C | -0.996 ± 0.69 | -1.39 ± 0.56
3 | CG T8A | -0.491 ± 0.035 | -0.209 ± 0.19
4 | CG T8G | < -10 | -6.68 ± 0.98
5 | CG C68G A69T A70T C71G | -0.963 ± 0.71 | -1.93 ± 0.91
6 | CG T8A T9A | -0.985 ± 0.14 | -0.297 ± 0.11
7 | CG C97A C98A A99C T100G | -1.52 ± 0.82 | -2.58 ± 1
8 | CG G26T | -0.577 ± 1.1 | -0.329 ± 0.41
9 | CG G26C | -1.96 ± 1.7 | -1.36 ± 0.65
10 | CG G26A | -0.184 ± 0.65 | -0.427 ± 0.47
11 | CG G80C A81T T82A A83T | -2 ± 1.1 | -1.88 ± 0.77
12 | CG G115T T116G G117T A118C A119C T120G C121A G122T A123C G124T T125G | 0.199 ± 0.37 | 0.000247 ± 0.072
13 | CG C63A A64C A65C A66C | -0.236 ± 0.15 | -0.189 ± 0.012
14 | CG G106C A107T | -1.92 ± 1.4 | -1.78 ± 0.63
15 | CG T12A G13A T30A T31C T32A | -1.04 ± 0.35 | -0.578 ± 0.26
16 | CG C55G T56A | 0.0301 ± 0.44 | 0.0691 ± 0.024
17 | CG G24C | -0.15 ± 0.17 | -0.164 ± 0.021
18 | CG G24A | 0.726 ± 0.12 | 0.3 ± 0.075
19 | CG G24T | 0.871 ± 0.023 | 0.72 ± 0.19
20 | CG C87G A88T | 0.294 ± 0.33 | 0.11 ± 0.21

Row | Variant | relative integration efficiency (log2) [1] | relative integration efficiency (log2) [2]
21 | CG G122T A123C G124T T125G | 0.252 ± 0.21 | 0.127 ± 0.054
22 | CG T9G | 0.416 ± 0.19 | 0.28 ± 0.09
23 | CG T9C | 0.146 ± 0.38 | 0.242 ± 0.0041
24 | CG T9A | -0.191 ± 0.61 | -0.00405 ± 0.092
25 | CG T12A T30A T31C T32A A77C T86G | -0.709 ± 0.52 | -0.451 ± 0.25
26 | CG G106T A107C T108G A109C | -2.4 ± 0.46 | -2.01 ± 0.81
27 | CG G24T T78G T104G | 0.121 ± 0.35 | -0.352 ± 0.37
28 | CG C94G A95T | -2.11 ± 0.65 | -1.23 ± 0.53
29 | CG G106T A107C | -1.19 ± 0.39 | -1.42 ± 0.84
30 | CG G24T T25G | -0.649 ± 0.2 | -0.561 ± 0.34
31 | CG G7T T8G | < -10 | -7.23 ± 1.1
32 | CG G4T T5G | -0.37 ± 0.2 | -0.366 ± 0.035
33 | CG T12A G13A T31C T32A A77C T86G | -0.861 ± 0.36 | -0.573 ± 0.15
34 | CG G10T A11C | -2.92 ± 0.037 | -1.58 ± 0.41
35 | CG C89A | 0.447 ± 0.3 | 0.031 ± 0.013
36 | CG C89G | 0.0739 ± 0.015 | -0.315 ± 0.029
37 | CG C89T | 0.203 ± 0.062 | -0.158 ± 0.031
38 | CG C89A A90C A91C A92C | -0.143 ± 0.65 | -0.537 ± 0.37
39 | CG G7C T8A T9A G10C | < -10 | -6.612 ± 0.065
40 | CG G4T | 0.222 ± 0.16 | -0.172 ± 0.075

Row | Variant | relative integration efficiency (log2) [1] | relative integration efficiency (log2) [2]
41 | CG G4C | 0.0545 ± 0.11 | -0.131 ± 0.036
42 | CG G4A | -0.235 ± 0.11 | -0.0961 ± 0.035
43 | CG C55G T56A T57A A58T | -2.28 ± 0.67 | -0.983 ± 0.39
44 | CG T9A G10C A11T T12A | -4.24 ± 1.9 | -1.59 ± 0.56
45 | CG G13T C14A A15C A16C | -1.69 ± 1.1 | -0.389 ± 0.12
46 | CG C98A A99C | -1.94 ± 1 | -1.73 ± 0.54
47 | CG T3G G4T T5G T6G | < -10 | -7.767 ± 0.04
48 | CG G80T A81C | -1.7 ± 0.97 | -1.51 ± 0.7
49 | CG C60G C61G | 0.337 ± 0.57 | -0.185 ± 0.23
50 | CG C49G G51T C52G C55T A58T A59T C60A C61T A62G | -4.34 ± 2.5 | -4.9 ± 0.68
51 | CG G115T T116G | 0.0607 ± 0.61 | 0.243 ± 0.033
52 | CG C72G A73T T74A A75T | -1.75 ± 0.9 | -1.77 ± 0.81
53 | CG C98A | -0.338 ± 1.2 | -0.0969 ± 0.46
54 | CG C98G | -0.135 ± 0.48 | -0.464 ± 0.23
55 | CG C98T | -0.0503 ± 0.61 | -0.178 ± 0.14
56 | CG T20A | -0.647 ± 0.083 | -0.343 ± 0.17
57 | CG T12G G13T C14A A15C | -0.59 ± 0.54 | -0.224 ± 0.3
58 | TG G24A T30A T76A T78G C87A | 0.0926 ± 0.5 | 0.0283 ± 0.13
